Experimental data reported in patent US20190225650A1, “PEPTIDOMIMETIC MACROCYCLES AND USE THEREOF IN REGULATING HIF1ALPHA” (AILERON THERAPEUTICS, INC., priority 2013, published 2019).
Blank lines part the entries; values can stand above or below the binder they belong to. Bridge positions count the residues as written; N and C are the ends. Square brackets hold non-standard residues; d marks the D form. R8 = C=CCCCCCC[C@@](C)(N)C(=O)O; S5 = C=CCCC[C@](C)(N)C(=O)O; Nle = CCCC[C@H](N)C(=O)O

What was measured:
[1] = molecular target: T1, His6-tagged p300 (AA 323-423) (UniProt Q09472 323-423); experiment: TR-FRET HIF1a/p300 displacement; grade = IC50 <=200 nM
T1 construct: range 323-423; also called p300-CH; not shown: His6 tag
T1 sequence (Q09472 323-423 limits assumed): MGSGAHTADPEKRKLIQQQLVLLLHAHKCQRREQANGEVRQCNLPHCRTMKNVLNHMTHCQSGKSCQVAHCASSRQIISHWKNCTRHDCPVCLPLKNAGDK
Experimental: The ability of peptides to displace HIF1α c-terminal trans-activation domain from p300-CH was measured by a TR FRET assay. […] The complex was diluted to 300 nM final in complete assay media and competitor peptides were added. The complete assay media contained 150 mM NaCl (Sigma +S5150 or equivalent), 20 mM HEPES pH 7.4 (Boston Bioproducts, Ashland, Mass.; #BB-2076), 7.5 mM CHAPS (Thermo #28300 or equivalent), and 1 mM DTT. Protein and peptide were incubated at room temperature for 1 hour before the addition of anti-Flag-K and anti-6×HIS-D2 (CisBio, Bedford Mass.) HTRF reconstitution buffer (50 mM Phosphate pH 7, 0.8 Potassium Flouride, BSA 0.2%)¹ to a final concentration of 0.5 μM and 4 nM respectively. The reaction continued for an additional two hours at room temperature. The reaction was read on a TECAN F500 plate reader with settings recommended by CisBio. The ratio of donor to acceptor fluorescence was calculated. The resulting data was analyzed with Graphpad Prism 5.0. IC50 values were calculated for both proteins using the One Site Fit-LogIC50 equation and presented in the column “IC₅₀ (nM) (HIF1α_p300 Displacement+CHAPS)” of Table 6. ¹ Cisbio USA, Bedford, Mass.; 61HISDLB (lot 007A), 61FG2KLB (024A), HTRF Buffer (62RB3RDF)

[2] = molecular target: T1, His6-tagged p300 (AA 323-423); experiment: TR-FRET HIF1a/p300 displacement; grade = IC50 >700 nM
In short: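 Peptides competed with HIF1α C-terminal transactivation domain for His6-p300-CH (complex 300 nM final) during 1 h at RT in 20 mM HEPES pH 7.4, 150 mM NaCl, 7.5 mM CHAPS, 1 mM DTT. Anti-Flag-K (0.5 μM) and anti-His-D2 (4 nM) were added for 2 h. IC50 was derived from the TR-FRET ratio by one-site fit.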

IC50 [1]: ≤ 200 nM
B1: SP-350 (peptide)
peptide: Ac-LLQAE[R8]LLRALD[S5]VNIDEEVL[Nle][S5]LVI[S5][Nle]-NH2
modifications: staple 6-13, 23-27
SMILES: CCCC[C@H](NC(=O)[C@]1(C)CCCC=CCCC[C@](C)(NC(=O)[C@H](CCCC)NC(=O)[C@H](CC(C)C)NC(=O)[C@@H](NC(=O)[C@H](CCC(=O)O)NC(=O)[C@H](CCC(=O)O)NC(=O)[C@H](CC(=O)O)NC(=O)[C@@H](NC(=O)[C@H](CC(N)=O)NC(=O)[C@@H](NC(=O)[C@]2(C)CCCC=CCCCCCC[C@@](C)(NC(=O)[C@H](CCC(=O)O)NC(=O)[C@H](C)NC(=O)[C@H](CCC(N)=O)NC(=O)[C@H](CC(C)C)NC(=O)[C@H](CC(C)C)NC(C)=O)C(=O)N[C@@H](CC(C)C)C(=O)N[C@@H](CC(C)C)C(=O)N[C@@H](CCCNC(=N)N)C(=O)N[C@@H](C)C(=O)N[C@@H](CC(C)C)C(=O)N[C@@H](CC(=O)O)C(=O)N2)C(C)C)[C@@H](C)CC)C(C)C)C(=O)N[C@@H](CC(C)C)C(=O)N[C@@H](C(C)C)C(=O)N[C@@H]([C@@H](C)CC)C(=O)N1)C(N)=O

IC50 [2]: > 700 nM
B2: SP-103 (peptide)
peptide: Ac-FIDEEVLM[S5]LVI[S5]MAA-NH2
modifications: staple 9-13
SMILES: CC[C@H](C)[C@H](NC(=O)[C@H](Cc1ccccc1)NC(C)=O)C(=O)N[C@@H](CC(=O)O)C(=O)N[C@@H](CCC(=O)O)C(=O)N[C@@H](CCC(=O)O)C(=O)N[C@H](C(=O)N[C@@H](CC(C)C)C(=O)N[C@@H](CCSC)C(=O)N[C@@]1(C)CCCC=CCCC[C@@](C)(C(=O)N[C@@H](CCSC)C(=O)N[C@@H](C)C(=O)N[C@@H](C)C(N)=O)NC(=O)[C@H]([C@@H](C)CC)NC(=O)[C@H](C(C)C)NC(=O)[C@H](CC(C)C)NC1=O)C(C)C

IC50 [2]: > 700 nM
B3: SP-101 (peptide)
peptide: Ac-FIDEEVLM[S5]LVI[S5]MALD-NH2
modifications: staple 9-13
SMILES: CC[C@H](C)[C@H](NC(=O)[C@H](Cc1ccccc1)NC(C)=O)C(=O)N[C@@H](CC(=O)O)C(=O)N[C@@H](CCC(=O)O)C(=O)N[C@@H](CCC(=O)O)C(=O)N[C@H](C(=O)N[C@@H](CC(C)C)C(=O)N[C@@H](CCSC)C(=O)N[C@@]1(C)CCCC=CCCC[C@@](C)(C(=O)N[C@@H](CCSC)C(=O)N[C@@H](C)C(=O)N[C@@H](CC(C)C)C(=O)N[C@@H](CC(=O)O)C(N)=O)NC(=O)[C@H]([C@@H](C)CC)NC(=O)[C@H](C(C)C)NC(=O)[C@H](CC(C)C)NC1=O)C(C)C

IC50 [2]: > 700 nM
B4: SP-98 (peptide)
peptide: Ac-FIDEEVLM[S5]LVI[S5]MGLD-NH2
modifications: staple 9-13
SMILES: CC[C@H](C)[C@H](NC(=O)[C@H](Cc1ccccc1)NC(C)=O)C(=O)N[C@@H](CC(=O)O)C(=O)N[C@@H](CCC(=O)O)C(=O)N[C@@H](CCC(=O)O)C(=O)N[C@H](C(=O)N[C@@H](CC(C)C)C(=O)N[C@@H](CCSC)C(=O)N[C@@]1(C)CCCC=CCCC[C@@](C)(C(=O)N[C@@H](CCSC)C(=O)NCC(=O)N[C@@H](CC(C)C)C(=O)N[C@@H](CC(=O)O)C(N)=O)NC(=O)[C@H]([C@@H](C)CC)NC(=O)[C@H](C(C)C)NC(=O)[C@H](CC(C)C)NC1=O)C(C)C

IC50 [2]: > 700 nM
B5: SP-100 (peptide)
peptide: Ac-FIDEEVLM[S5]LVI[S5]MALDRIKE-NH2
modifications: staple 9-13
SMILES: CC[C@H](C)[C@H](NC(=O)[C@H](CCCNC(=N)N)NC(=O)[C@H](CC(=O)O)NC(=O)[C@H](CC(C)C)NC(=O)[C@H](C)NC(=O)[C@H](CCSC)NC(=O)[C@]1(C)CCCC=CCCC[C@](C)(NC(=O)[C@H](CCSC)NC(=O)[C@H](CC(C)C)NC(=O)[C@@H](NC(=O)[C@H](CCC(=O)O)NC(=O)[C@H](CCC(=O)O)NC(=O)[C@H](CC(=O)O)NC(=O)[C@@H](NC(=O)[C@H](Cc2ccccc2)NC(C)=O)[C@@H](C)CC)C(C)C)C(=O)N[C@@H](CC(C)C)C(=O)N[C@@H](C(C)C)C(=O)N[C@@H]([C@@H](C)CC)C(=O)N1)C(=O)N[C@@H](CCCCN)C(=O)N[C@@H](CCC(=O)O)C(N)=O

IC50 [2]: > 700 nM
B6: SP-99 (peptide)
peptide: Ac-FIDEEVLM[S5]LVI[S5]MG-NH2
modifications: staple 9-13
SMILES: CC[C@H](C)[C@H](NC(=O)[C@H](Cc1ccccc1)NC(C)=O)C(=O)N[C@@H](CC(=O)O)C(=O)N[C@@H](CCC(=O)O)C(=O)N[C@@H](CCC(=O)O)C(=O)N[C@H](C(=O)N[C@@H](CC(C)C)C(=O)N[C@@H](CCSC)C(=O)N[C@@]1(C)CCCC=CCCC[C@@](C)(C(=O)N[C@@H](CCSC)C(=O)NCC(N)=O)NC(=O)[C@H]([C@@H](C)CC)NC(=O)[C@H](C(C)C)NC(=O)[C@H](CC(C)C)NC1=O)C(C)C

IC50 [2]: > 700 nM
B7: SP-102 (peptide)
peptide: Ac-FIDEEVLM[S5]LVI[S5]MA-NH2
modifications: staple 9-13
SMILES: CC[C@H](C)[C@H](NC(=O)[C@H](Cc1ccccc1)NC(C)=O)C(=O)N[C@@H](CC(=O)O)C(=O)N[C@@H](CCC(=O)O)C(=O)N[C@@H](CCC(=O)O)C(=O)N[C@H](C(=O)N[C@@H](CC(C)C)C(=O)N[C@@H](CCSC)C(=O)N[C@@]1(C)CCCC=CCCC[C@@](C)(C(=O)N[C@@H](CCSC)C(=O)N[C@@H](C)C(N)=O)NC(=O)[C@H]([C@@H](C)CC)NC(=O)[C@H](C(C)C)NC(=O)[C@H](CC(C)C)NC1=O)C(C)C

IC50 [1]: ≤ 200 nM
B8: SP-119 (peptide)
peptide: Ac-FIDE[S5]VLM[S5]LVIE[Nle]ALDRI-NH2
modifications: staple 5-9
SMILES: CCCC[C@H](NC(=O)[C@H](CCC(=O)O)NC(=O)[C@@H](NC(=O)[C@@H](NC(=O)[C@H](CC(C)C)NC(=O)[C@]1(C)CCCC=CCCC[C@](C)(NC(=O)[C@H](CCC(=O)O)NC(=O)[C@H](CC(=O)O)NC(=O)[C@@H](NC(=O)[C@H](Cc2ccccc2)NC(C)=O)[C@@H](C)CC)C(=O)N[C@@H](C(C)C)C(=O)N[C@@H](CC(C)C)C(=O)N[C@@H](CCSC)C(=O)N1)C(C)C)[C@@H](C)CC)C(=O)N[C@@H](C)C(=O)N[C@@H](CC(C)C)C(=O)N[C@@H](CC(=O)O)C(=O)N[C@@H](CCCNC(=N)N)C(=O)N[C@H](C(N)=O)[C@@H](C)CC

IC50 [1]: ≤ 200 nM
B9: SP-89 (peptide)
peptide: Ac-EVLM[S5]LVI[S5]MGLDRIKELPELWL-NH2
modifications: staple 5-9
SMILES: CC[C@H](C)[C@H](NC(=O)[C@H](CCCNC(=N)N)NC(=O)[C@H](CC(=O)O)NC(=O)[C@H](CC(C)C)NC(=O)CNC(=O)[C@H](CCSC)NC(=O)[C@]1(C)CCCC=CCCC[C@](C)(NC(=O)[C@H](CCSC)NC(=O)[C@H](CC(C)C)NC(=O)[C@@H](NC(=O)[C@H](CCC(=O)O)NC(C)=O)C(C)C)C(=O)N[C@@H](CC(C)C)C(=O)N[C@@H](C(C)C)C(=O)N[C@@H]([C@@H](C)CC)C(=O)N1)C(=O)N[C@@H](CCCCN)C(=O)N[C@@H](CCC(=O)O)C(=O)N[C@@H](CC(C)C)C(=O)N1CCC[C@H]1C(=O)N[C@@H](CCC(=O)O)C(=O)N[C@@H](CC(C)C)C(=O)N[C@@H](Cc1c[nH]c2ccccc12)C(=O)N[C@@H](CC(C)C)C(N)=O

IC50 [1]: ≤ 200 nM
B10: SP-282 (peptide)
peptide: Ac-FIDEQVLM[S5]LVI[S5]MALDRI-NH2
modifications: staple 9-13
SMILES: CC[C@H](C)[C@H](NC(=O)[C@H](CCCNC(=N)N)NC(=O)[C@H](CC(=O)O)NC(=O)[C@H](CC(C)C)NC(=O)[C@H](C)NC(=O)[C@H](CCSC)NC(=O)[C@]1(C)CCCC=CCCC[C@](C)(NC(=O)[C@H](CCSC)NC(=O)[C@H](CC(C)C)NC(=O)[C@@H](NC(=O)[C@H](CCC(N)=O)NC(=O)[C@H](CCC(=O)O)NC(=O)[C@H](CC(=O)O)NC(=O)[C@@H](NC(=O)[C@H](Cc2ccccc2)NC(C)=O)[C@@H](C)CC)C(C)C)C(=O)N[C@@H](CC(C)C)C(=O)N[C@@H](C(C)C)C(=O)N[C@@H]([C@@H](C)CC)C(=O)N1)C(N)=O
